How the values were obtained:
[1] = biological target: BDBV GP (Bundibugyo virus (BDBV)); test: GP ELISA, purified mAb
[2] = biological target: BDBV GP (Bundibugyo virus (BDBV)); test: ELISA, purified mAb

Chain of FVM09 (antibody) (VH): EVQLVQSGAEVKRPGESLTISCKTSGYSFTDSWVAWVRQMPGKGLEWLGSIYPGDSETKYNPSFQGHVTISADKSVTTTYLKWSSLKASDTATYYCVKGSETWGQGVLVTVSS
Chain of FVM09 (antibody) (V domain): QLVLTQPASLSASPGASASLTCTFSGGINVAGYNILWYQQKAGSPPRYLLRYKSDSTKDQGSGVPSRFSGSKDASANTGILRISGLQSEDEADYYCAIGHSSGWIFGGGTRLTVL

FVM09 (antibody)
EC50 [1]: 0.02 µg/mL
EC50 [2]: < 0.015 µg/mL

From patent US20170334973A1
